# Assay results reported in the DeepSol protein solubility set.
# Test: soluble on expression in E. coli; label from the status in PepcDB or PDB records
row,Sequence,soluble on expression in E. coli
1,AWPEGQALGPGMPLPEPSEQEGESVKAGQEPSPKPGTDVIPAAPRKPREFSKLVLLTASDQDEDGVGSKPQEVHCVLSLEMAGPATLASTLQILPVEEQGGVVQPALEMPEQKCSKLDAAPQSLEFLRTPFGGRLLVLESFLYKQEKAVGDKVYWKCRQHAELGCRGRAITRGLRATVMRGHCHAPDEQGLEARRQREKLPSLALPEGLGEPQGPEGPGGRVEEPLEGVGPWQCPEEPEPTPGLVLSKPALEEEEAPRALSLLSLPPKKRSILGLGQARPLEFLRTCYGGSFLVHESFLYKREKAVGDKVYWTCRDHALHGCRSRAITQGQRVTVMRGHCHQPDMEGLEARRQQEKAVETLQAGQDGPGSQVDTLLRGVDSLLYRRGPGPLTLTRPRPRKRAKVEDQELPTQPEAPDEHQDMDADPGGPEFLKTPLGGSFLVYESFLYRREKAAGEKVYWTCRDQARMGCRSRAITQGRRVTVMRGHCHPPDLGGLEALRQREKRPNTAQRGSPGGPEFLKTPLGGSFLVYESFLYRREKAAGEKVYWTCRDQARMGCRSRAITQGRRVMVMRRHCHPPDLGGLEALRQREHFPNLAQWDSPDPLRPLEFLRTSLGGRFLVHESFLYRKEKAAGEKVYWMCRDQARLGCRSRAITQGHRIMVMRSHCHQPDLAGLEALRQRERLPTTAQQEDPEKIQVQLCFKTCSPESQQIYGDIKDVRLDGESQ,soluble
2,MGSDKIHHHHHHMESYKGNKTTRKQIVSSIQMDIIKNRKIGEKLPSESEYANLFGTARSTVQKALRDLETMQLIEKVQGKGSFVIFKHPKIEMFNFRGFSEYAHQIGATPITKLIKKKKIDNGHKMLLKRLRSIKINDEIAPLTFDESILSLDDFPGLDQYNFEKGSLYDVLRNKYNTYPAIANLEVIPVAPEEEISNLLRVSKGNPLLKVNGFVYDSNSEIMEKVGIIYSDQARFKFTLGI,not soluble
3,MSLGTNPFYKIKREGEISLKLKNQLFRLYFLLIYSSLENLQMADKKSPVAVGMTVTPSNQANFVDAGSTTLMNKPGEPTFKLGINLNKVEFKCTEDRKPISVNLKLHNPMAVTVSYKVRCTSADIFRVQPPLGFVKPNETVSIVIWYQNQDKKDAISKNHYFAFYHTTSDGRTARELWANSKVEGVRRLPASFLSTK,not soluble
4,MSNDNEVPGSMVIVAQGPDDQYAYEVPPIDSAAVAGNMFGDLIQREIYLQKNIYYPVRSIFEQGTKEKKEINKKVSDQVDGLLKQITQGKREATRQERVDVMSAVLHKMESDLEGYKKTFTKGPFIDYEKQSSLSIYEAWVKIWEKNSWEERKKYPFQQLVRDELERAVAYYKQDSLSEAVKVLRQELNKQKALKEKED,soluble
5,MVFKIKDEWGEFLVRLARRAIEEYLKTGKEIEPPKDTPPELWEKMGVFVTLNRYNVPPQTALRGCIGFPTPIYPLVEATIKAAIYSAVDDPRFPPVKLEEMDNLVVEVSVLTPPELIEGPPEERPRKIKVGRDGLIVEKGIYSGLLLPQVPVEWGWDEEEFLAETCWKAGLPPDCWLDEDTKVYKFTAEIFEEEYPRGPIKRKPLVLEHHHHHH,soluble
6,MAHHHHHHMANSKFSYVKLFEEERKILLNCYFIVRIDGCDFKHFVKAHNYNKPNDIKGLNLMNECALDILKKFDDIDLCYGHSDEYSFLFNKSTKLWNRRYDKILTNVVSYFTSCFLYKWKNYFQKEMLYAPSFDARIVVYPNEKEIKDYFSWRQVDCHINTQYNECFWNLIRQANYTNDEAHKFLLTTQTKDKNELLFSRFNINYNNLPEIFRRGTIIIRNKTFQKKNEALGTIYNNDTANNIDDNNNNNNNNNNTFNDNNDIENFEKLKKECLPKFIISHENLVSEKFWDKYDYIFKKKKDLEKK,not soluble
7,MAHHHHHHMLILKNVEHTILLKIVKRSFSRNVNNNKFVIKPSSLRIRSDKNNFNDIINKYFPNRILKKRKQQDDYSKMNDKNEEKDKKYYLSSKIERRLKMEKVNDQSNISFYNVIPRDKNKNNYLLDSYNNINNDDSTNISDNTNISDNTNISDNTNISDNTNISDNINISDNINISDDINICDKLNICDNTNINLFGYDMTSHQVRVEEKENNLTRNNKKNVLEITKEEHDIQKYKNKLHKKIWILLKRKSNEKEFEHYYNMLEKYPLKDEVSYSILLHGKLLISKRKKDNAENYYDIIKECFKILNEMKVKKIHPTLVRFNEKLVLSYYELIKLNVHPSYKQWMKILRTVWFVSALVKARRQKFILRKMKKIKNKNSVSLDNFNGTFNIHNLESLYVENRDPLIANNVQQGI,soluble
8,MTFMSEVKFETVEQKASYGIGLQMGQQLAGSGLEGLNVAAIAAGIATALVGEQPAISIDEINQALHAIHMRAEEARQEAAKVAASEGEAFLKDNALRPEVTVLESGLQYEVLVEGNGAIPTSDKSVRVHYHGQLVDGTVFDSSVSRGQPAEFPVTGVIRGWVEALQLMPVGSKWKLYIPHNLAYGERGAGAAIPPFAALVFEVELLDIL,not soluble
9,MLFTVTAPKEVYTVDVGSSVSLECDFDRRECTELEGIRASLQKVENDTSLQSERATLLEEQLPLGKALFHIPSVQVRDSGQYRCLVICGAAWDYKYLTVKVKASYMRIDTRILEVPGTGEVQLTCQARGYPLAEVSWQNVSVPANTSHIRTPEGLYQVTSVLRLKPQPSRNFSCMFWNAHMKELTSAIIDPLSRMEPKVPRT,soluble
10,MGSDKIHHHHHHMTVEYTASDLATYQNEVNEQIAKNKAHLESLTHPGSKVTFPIDQDISATPQNPNLKVFFFDIDNCLYKSSTRIHDLMQQSILRFFQTHLKLSPEDAHVLNNSYYKEYGLAIRGLVMFHKVNALEYNRLVDDSLPLQDILKPDIPLRNMLLRLRQSGKIDKLWLFTNAYKNHAIRCLRLLGIADLFDGLTYCDYSRTDTLVCKPHVKAFEKAMKESGLARYENAYFIDDSGKNIETGIKLGMKTCIHLVENEVNEILGQTPEGAIVISDILELPHVVSDLF,not soluble
11,SKRAATLTDIKHIKQLDLSDHKSLEFARDIFLFSFYMRGMSFIDLAYLRKKDLNSGFVSYSRRKTGKKLIIRWEKQMQEIIDRYGDSETQYLLPIIEREDGTEHRQYRNKMLLVNRKLKKIAARAGLTTPLTMYVARHSWASIAKTKNISIGIISEAMGHDSETTTQIYLSSIQTNQIDNANRN,not soluble
12,MSLAGHQAMHYSRILPNIWLGSCPRQVEHVTIKLKHELGITAVMNFQTEWDIVQNSSGCNRYPEPMTPDTMIKLYREEGLAYIWMPTPDMSTEGRVQMLPQAVCLLHALLEKGHIVYVHCNAGVGRSTAAVCGWLQYVMGWNLRKVQYFLMAKRPAVYIDEEALARAQEDFFQKFGKVRSEGHHHHHH,soluble
13,MAHHHHHHMEDDFHVDEEYIKQLSEKYKNAEHPLFMDELPANIEENEDLHALYNLMIDDEDELSLAKNFKQVGNDYYQDGTKYFEDAIISYTKGIDILTKYWEDKNLEKRKAERGKLRNDSNSSPTEGTKSNAQNVSSQRISNGVSIENGESTAGEEAGKPAVKGDSTSSRKGTEITVLNGLHNEGGHRDDLRDNEIRGVLADLHCNRAIVHYKKKRYVKCLQDCRKAYAFNQTKFKSVYYSILCSYHLELYKDAHMYVNRFEDMTKSIDLKNHINLNEYEKMKEIIFKKDEDILERKKVDQNEKRKAEENEKNVANLVQDILHKRNIQMVENVYQQGNNVIPVLYVDTSMYIHFTVFLLYFERAIMETIIDFAENQSIMDHYDIVKKNKNNHLLFCYIEFPYDVFFMIHSSSYICDVLNRAKLFSPILSIHIIENEEANRQFRSGKTIKSIPL,not soluble
14,GAADPVVVPANMEPLTIEGNRFVTLCIMIRTTPWEVSRDVKLHPRDEVDWHTLEGVRALREAFATNNPNGRLTWGFTMNALEDGRKNYREIRDYVVECQKKYGDEVTYFPGYFPAMYLPRERVNREMSEAIEIISKMVGNGYRPQSIMGGFLSADNLRYLAEKENIHVAHAVIWSQHNIDGGGADGSPSYPFYPSTEHFCKPAQGKSDFIDCVNLDGWTMDFICARRSGQTGHGIDGYNSRRGVGPIETYKGWGLDLGHREVMHTEAIHFDKGLELNGFGWVANIWEAQMVHEFGKDLICDAMKMWVTGTKERWPDTHFVTFGEFGELWRKQYKSNDDWNYRFVERGSGLGDSYNNLEIKWFMNKEFRLALLRDWHTKNSPAYVIDFTRYDLQAHEPADPSPEKPAKDWSLINKINQKALRPQDKPVLIDKLEKEDQDLIRKYYPELLK,soluble
15,MSLDQREILQKFLDEAQSKKITKEEFANEFLKLKRQSTKYKADKTYPTTVAEKPKNIKKNRYKDILPYDYSRVELSLITSDEDSSYINANFIKGVYGPKAYIATQGPLSTTLLDFWRMIWEYSVLIIGMACMEYEMGKKKCERYWAEPVEMQLEFGPFSVSCEAEKRKSDYIIRTLKVKFNSETRTIYQFHYKNWPDHDVPSSIDPILELIWDVRCYQEDDSVPICIHCSAGCGRTGVICAIDYTWMLLKDGIIPENFSVFSLIREMRTQRPSLVQTQEQYELVYNAVLELFKRQMDVIRDKHSGTESQAKEGHHHHHH,soluble
16,DPAAADRAEELRIQNLLKQLQQAVTNNDLTIYYQPIMSLQQQSLELYQIYIGLHGDEELISSVTLLEIAKKRELIAQIDRWVVARAIAQIGERQRAGHTTHLLVQIDSASFTDPQLLTMLRTELAAHHVRGEQLWLQTPESKVFTHLYNAQQFLSEISVQGCKMGLEQFGTGLDSFQLLTHFKPAFLKLDRNLTQDINSNHDSLEKIREITSRAQDNGIATFAEFVTDSTSMSALFKVGVDYVQGDFVAPI,not soluble
17,MKLVDALGKPCPIPVIETKKALAELGLAGGTIEVLVDNEVAIENLKKLATKKQATLTAKQIEATVFSVKITVPEEATQQTSQSATDLVITIGSDQLGTGDEQLGRLLMKSYLQSLSEAETVPTQLLFFNRGAFLTNQAANTLADLQQLAEKGTTIQTCGACLDFYHLTDTLAIGSITNMYEIVETMNQAAKVITLLEHHHHHH,soluble
18,MMKLKVYADRMSQPSRAVIIFCKVNGIQFDEVLISLAKRQQLSPEFKDINPLGKVPAIVDGRLKLFESHAILIYLSSAFPSVADHWYPNDLSKRAKIHSVLDWHHTNLRRGAAGYVLNSVLGPALGLPLNPKAAAEAEQLLTKSLSTLETFWLKGNAKFLLGSNQPSIADLSLVCELMQLQVLDDKDRLRLLSTHKKVEQWIENTKKATMPHFDETHEILFKVKEGFQKRREMGTLSKPGLQSKI,soluble
19,MTHQDTIASEDGSDINILLNTVQNAKALVIFAHGAGANMSHEFMNETSRLLNHLGINVLRFNFPFMDKRALTGKKYPPDRMPKLLLCYETVIEYVVDKKLSHQLPLFIGGKSMGSRVAASLVADSDLLKSRLLNHISGVFCIGYPFHPAKKPEKLRLEPLVDANKPVLIVQGDRDTLGNKVEIASYRLAEHCQCVFLEDGDHSLKPRVKSGFTHQAHMQSAVEEIVTFIERVTISS,not soluble
20,MAKKSTGFDHDPVRVLVAWNPSSHGAEAIECAAWLARTTNVTVQCVTAFLRPWPSSSGNKLGSKYKKWFKKEAFACEDAVKAAFSRAEIPTAMWADTVSVFCDGTNEAALLSEAAHKFGADIVLLGSEAAAPKGRFLAGSTADALLHSSPQPLGLTPRKPKLSKRGVTRVNFAYTGDATDNTSLIRTARLAAAWDVPLRVLALSPEGFGVPPISDTLELPEDLALEWRENTFAVLDRSRDTVHKAHPDVIVETEIGSGNGWSGAIESLKWKKGDLLCFGSTPLGAFERVFIGSQATEILPYVSVPVLMIPATTKVDKKSKK,soluble
21,MSLKVDSFSLPLSSPLATARETISQRSGFVVRYDHRGETGVGEATPLPGWTESLDDCQRGLNDAATVAAGGGHTDVLLSLDAASVPAARHGFATALLDADARADGVPLYQWFDSERHCNRVPVNATVGDGSPAETADAVERAVEAGYDCCKMKVGKRTVDEDVARVRTVRERVGDDVTLRADANGAWSRDRAQEAFDRLAPLDVAYVEQPLPADDLTGHAGLRGNGVGVALDESLVDRRVDSVLDADAADVLILKPMVLGGPGNAHTLALRAREQGVEPVVTTTIDAVVARLAALHVAAAIPDVAACGLATGDRLAADLAPDPTTVTDGAMSVPQSTGLGIDPTEVGTDAEGHHHHHH,soluble
